# Assay results: paper PMC10167327
# Experiments:
# [1] = target: Vtc4* (Vtc4(1–487), SPX and TTM domains of Vtc4 without the transmembrane domain) (S. cerevisiae) (UniProt P47075); experiment: MST; conditions: domain or fragment
# [2] = target: Vtc4* (Vtc4(1–487), SPX and TTM domains of Vtc4 without the transmembrane domain) (S. cerevisiae) (UniProt P47075); experiment: MST; as a1, MST buffer supplemented with 2.5 mM IP6
# [3] = target: Vtc4* (Vtc4(1–487), SPX and TTM domains of Vtc4 without the transmembrane domain) (S. cerevisiae) (UniProt P47075); experiment: MST; as a1, MST buffer supplemented with 2.5 mM 1,5-IP8
# [4] = target: Vtc4* (Vtc4(1–487), SPX and TTM domains of Vtc4 without the transmembrane domain) (S. cerevisiae) (UniProt P47075); experiment: MST; as a1, MST buffer supplemented with 2.5 mM natural 5-IP7
# Sequence of Vtc4* (Vtc4(1–487), SPX and TTM domains of Vtc4 without the transmembrane domain) (S. cerevisiae) (P47075 1-487): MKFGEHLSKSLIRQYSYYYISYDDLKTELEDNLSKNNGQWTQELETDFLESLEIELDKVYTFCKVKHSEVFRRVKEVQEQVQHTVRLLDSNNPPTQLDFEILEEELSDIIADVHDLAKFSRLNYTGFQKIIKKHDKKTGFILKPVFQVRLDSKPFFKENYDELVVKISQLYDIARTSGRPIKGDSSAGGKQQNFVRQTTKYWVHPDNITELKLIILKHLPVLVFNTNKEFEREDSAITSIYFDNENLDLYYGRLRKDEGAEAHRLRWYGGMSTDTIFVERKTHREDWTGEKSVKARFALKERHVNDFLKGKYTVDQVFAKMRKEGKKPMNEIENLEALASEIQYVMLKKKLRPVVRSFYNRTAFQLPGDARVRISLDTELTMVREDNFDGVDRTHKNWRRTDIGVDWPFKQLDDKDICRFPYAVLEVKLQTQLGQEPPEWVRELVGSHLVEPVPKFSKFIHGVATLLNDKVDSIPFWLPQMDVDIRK
# Sequence of SPX2∆α1 (SPX2 with helix α1 truncated) (P43585 1-151): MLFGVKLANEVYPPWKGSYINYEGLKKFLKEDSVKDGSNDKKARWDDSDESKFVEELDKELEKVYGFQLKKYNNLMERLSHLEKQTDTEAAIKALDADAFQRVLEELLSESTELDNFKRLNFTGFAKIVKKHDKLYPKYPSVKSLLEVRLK
Kd [1] [µM],fold decrease of affinity with 2.5 mM IP6 against no ligand [2] [fold],"fold decrease of affinity with 2.5 mM 1,5-IP8 against no ligand [3] [fold]",fold decrease of affinity with 2.5 mM 5-IP7 against no ligand [4] [fold],Substance
1000,,,,SPX2∆α1 (SPX2 with helix α1 truncated)
,> 20,> 100000,85,"SPX2 (SPX domain of Vtc2, Vtc2(1–201)) (from UniProt P43585 1-201) (domain or fragment)"
